# Data: the domain aggregation screens of Martell et al. (2025)
# Test: soluble fraction after stress (log2 fold change); higher = more stays soluble; pooled small domains, quantitative proteomics
# Details: stress: pH 4
# Summary of the method: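 After pH 4 stress, pooled custom libraries of small protein domains were quantified with high-throughput quantitative proteomics. Aggregation propensity is taken from the fold change in each domain's soluble amount following the acid stress. The scale is log2, where higher values mean more stayed soluble.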
row,Sequence,soluble fraction (log2)
1,HMNTYVLPDALKSQLSVEDTGMLTKQLQALPETLAEGVLDSLSQMLSKNTLQNPVGWMLAVMKRAREGNFN,-0.282
2,HMNVAVSEADAKAAALERVSGATEADIRMELELDDGYYVYEGDIIYQQKEYEFEIDAQTGKFLKWSEER,0.0965
3,HMNVDLLEARIPIQSHGMRLDQVVAELFPDYSRNRLAAWIKEGRLTVDGKTMKPRDRALASAHVVLEVV,-0.197
4,HMNVGKYILTLAAKEGYSQSDVARRTGISRQMLSYIIAGERKLTLPQALKIESLLSLKTGTLILMQDED,0.219
5,HMNVNEIREMYPEGTQIVLTEMRGENQMPYGLKGTVKFVDDAGQIHMKWENGSSLALNINEDTFEKVE,-0.471
6,HMNVPATAEAYEALLADAESVGKSLWGHEAKRFAAEQALLSAGLREVIQVDPDKARELALRLRGLLDEYRG,-1.24
7,HMNVQGFVFDLAEPLDKVPSIEGFPLKLEDPLTLVAAVNKDRSINALFAELSKLNIKIKSMRNE,-0.458
8,HMNVVSIEHIRTHLQNHLSLIGRSIEESFNEAKVIAFVASLFLTHRGYASVSQDMGTNGEIYLQDLW,-0.0149
9,HMNVWGLSERELEATRLLIEGFSSKEASARMGISPSTVRSLWGRARAKMGVDSIEDARELVA,-0.273
10,HMNYAVTAARRESILNAALEIFGKSGYNGSSVKQVALAVGMTEAGVLHHFGTKSNLLIEVLRV,≥ 0.43
11,HMNYLDVNIPVTSAVWMGKQLPEMGTLIYLTPDKDVEGMLFIKQATKDKPDGEYIEAKVLGYKEGRVLFDF,-1.48
12,HMPAEEVPLYKAVVVTTPPNRLRVRFSPAGDFKRWLQSGEEVDVYQELGDWRRIEPNGWSSAEWLQRVG,0.00708
13,HMPAGWIPARIRLADYPQLRSLAWHVQGIDTLTPTEALDIYERNARHLDAQAMSAQEQDLLASLRLALS,-1.06
14,HMPALPGNELLRNLMLEHGLKQVDLAEIGSQGVVSEILSGKRRINRRHADLLARRFSLPAELFSR,-0.0865
15,HMPANLTPDYFKAEQWYRSASTNEEKMLALEQMLAVMPKHKGTEHLQADLKRKLSQLKDASAQ,≥ 0.43
16,HMPAPAPDIPYHSRVSVRRADGFYEGTWTNTAPILDYTGRWMVNVSLGGKRVFVPVEEVVVH,-0.384
17,HMPAPKPSGALSLKDEPLYAASDSKRRSGTVSGTYYRWDGENVNGRMRITNKQENIGKAGQVTGWITAH,-0.00233
18,HMPASTSIPYSDFISRVESGDVQEAKIGESAITGTYKDGSQFKTVKPPTLDTNLMPTLIQNKVNVVGVEP,0.0215
19,HMPAVGGVVKGAVVSVGRNEVRLDIGGLAIGIIRGPELDKHVDLRIGDEVEATVITLDNEFGELELSL,-1.73
20,HMPAVTEQTKTNLRRAFWQLYEQKPIQKITVKQITDLAGYNRGTFYLYFKDVYDLLDDIENK,-0.584
21,HMPAVTEQTRANLRTAFWSLYREKPTSKITVREITDRAGYNRATFYLYYRDVYDLFEQIEQEIL,-1.36
22,HMPDAGQRRYLELVTALAGARSLTIDDLERRAIRFAEWGNGYSGRTARQFIDTLLQDRGVAEEL,-0.935
23,HMPDAIPLETIIKNVNVLAGFLINSKTFTEDDIVMAYNNIMKIKGDHTDEKTLTNDVYTLLTEMN,-1.22

row,Sequence,soluble fraction (log2)
1,HMPDIFDRGTAHITDAASGVAITFTRTFRIPPEVTMTHKGGTVVAIARLVGSITTGGFTAVLENT,-0.0848
2,HMPDLQDTLYRLVPEDGSAIGNQSLREKFLSTAKDASDADFEAARDGLVEQGKLTKGKGRGGSVRRAEP,0.397
3,HMPDLSMLDEVLDEYRSQAGSLVTVLQKAQDLYGYLPLTILRHIAEEMNIKPAQVYGVATFYTQFRL,-0.866
4,HMPDRQKDIQNWQQIAETLLNMLDKYVAALETGKTGLAEAYKAIFAETLRRLDDRLDPEQFLP,-1.3
5,HMPDTETLTPRQRQILDLVQELGFTTIETLAERFGVSAQTVRREIIRLQAGNFLQRFHGGAGLASGGIRSA,-0.325
6,HMPDYAFEGVVIKLTHRDYDRWKAGFPDVDLPPYLTARDAWLSEQTPADRKNWFVSTATDLRNFQKREAI,-0.362
7,HMPEDQISYTDLIKQINDGNVEKIKMTVGSTTIKVNLKEQEEPKTAIVPSTQAFIELVQEKVQDGNEITLI,-0.39
8,HMPEITPAMIKALLSSLSEELAFASVTKVYAVLHNLFKAALLDDTIDRNPMDKVPRPRKSKDAAL,-0.424
9,HMPELPEVETSRRGIEPHLVGATILHAVVRNGRLRWPVSEEIYRLSDQPVLSVQRRAKYLLLELQA,0.369
10,HMPELSPEERAIIETLQKNNDLQVNIIAIKTGMDMGSLSAVLFDLEMKGLVKLLAGGMYHLI,-0.112
11,HMPEPAPALPAKTRVSIRRETGGIIWHEGAWTISPPIRAYDGRWYVAVTTARKGIEFVPVSSVIRS,-0.0262
12,HMPEPMKLSDLPPELWQRVSDLFDEVIDLPETDRIPYIRNLWGSEPLVAKELMALLVAAANVD,-1.1
13,HMPESFSEMQKRTGVGEFSDDALSAKYVDSIDADVMSLDEYIMKVRGISLDDLEAERALRAR,-0.884
14,HMPETAQLTDIQVSRSQAHTGIFSLHYYLTGTDSRGERVRLEISGDDYTRLSGSSSVTVEYYRHTGRIVRY,-0.552
15,HMPETYVVFSKDGYANLRRGTTINSEILDVLDNGEYVTKLDEVGEWYRVEYADFDGGYIHKSQLKNI,-1.58
16,HMPFDRTVQLAGARARQLQALPRYREVLRLLDEGMNPREIGQVLDPPVTRQRASALIQQAKRAQMLGLFED,-0.0649
17,HMPFNLKSLADRLSHVFPGLVKMRDDIGAIIVMDKIKVTEHGVTEGGGLAADRVRAVYNEFIKEY,0.334
18,HMPFSLHGVNEGSRNDNAARIAGYLISKNLNLDFVRIFLHNWNRDNKPPLPQQEIDSVVDNVKKTHDRKN,-0.0731
19,HMPGEATVPSVIGMTKAEAKAKLQASGFELGYSEFVASDKPKGEIVEQDPGAGETAKGGTEVNVKISDGS,-0.187
20,HMPGLDTTILSDILSLKKELPSRSAAKILIMLILAKRIEEGSLNLRTINRILNQYGYTRESLL,0.327
21,HMPGLQSVTPAELKIGMYVILPLAWDEHPFLKNHFLIQSEAQINKIRELGTKGIQIDLSKSHP,0.0126
22,HMPGMLVVYVTGAVRQPGRMVTLAAGSRVSDAIDAAGGLADDADAQALNLSARLNDGDLVHVPSALD,-0.227
23,HMPHILEITSSKILDELQDEKKMVYFHFEKQSNQYVYRLIFNSKNELMEFKKSLEKNSSILDVRADM,-0.354

row,Sequence,soluble fraction (log2)
1,HMPHITDAEWEVMRVVWANHHVTSKEVISILEDKMNWKATTIKTLLGRLVEKGALSTEQDGKKFIYTAR,-0.622
2,HMPHTDATDKQIIALILETLKDGQKHSVSEMTFPGIPREKTAQLLHQMIEEETVRIQNGVLFLPH,-0.118
3,HMPIDNTLLSRITSLGVSTTEAEKLISKHGEEALKANLEVVEERLSKPNLPLLDSPAAYLKTALKNG,0.224
4,HMPIEQVEVPNLTNMTREEAESTLTSLNLKAQVHEEANEADEGKVFKQGTNTGEMVDEGSTIEIWVS,-0.555
5,HMPIHAGERLTLRLAGEGREAGQAIGYLEDGTLVIVERARHLIGQDVTVEVTRTLQTAGGRLVFAHLVE,-0.896
6,HMPKDLEKRAAILAAAKHLFPVHGFEGTSMDAIAALANVSKLTVYSHFKDKESLFTEAIREK,0.163
7,HMPKDMAKRASILTAASKLFVQHGYGGVSMDQIAAEAGVSKLTVYSHYGDKDSLFAAAVQAH,0.163
8,HMPKELAPYDILARYYLTVNNSKQSIALLEQYLDKAGSAPAALKAKLLLAGILYPSGNKERAEKLVEEVIK,-0.136
9,HMPKETFLNLDEEKRQAIINVLLKNFSEQHISQVKVSAIVSGIGMSRGAFYKYFEDLEDAYRFTISYFSA,-0.0967
10,HMPKLTKEEIQFIDNYLKNSGVEYIDTRAEVVDHVASEIESRLSANNTTNFYEEFKVYMVQHKETLLK,-0.96
11,HMPKLVGEVMQTLDALRREKGLSLLLVEQNARAALGVVDRVYVLERGRVVFEGSAKEAMEDQDVMEFYLG,0.0193
12,HMPKRSKDEAELEFLEMLRDNQVDSTWSFGKIISQLGSTDPRYWMVDDDPLWKRQIFEKYLSNR,-1.79
13,HMPLDISDDSKAVLKLLKNDSNELNTVKSASGLSNKKWDKTIKELTKNKIVSVSKTEDGLYIHLI,0.336
14,HMPLDYQELRNISPQAARQAILQILKANKGNVSQTARMLGITRKTVYKAMAKREAGNLDDGSRAPK,0.265
15,HMPLLELPDDFYPAWKPKTIYVQGQRIMLDGVAFEAKWWTQGDNPASGQADPGSSPWRTLTQEEIAKLLE,-0.56
16,HMPLLKIGAQGHDVRVVQEALQRAGYAIEGVTGIFDEATREAVLAFQRDQQLTESGTVDRATWHALRR,-0.52
17,HMPLLSPRQLDVLSLAAGGLSDAQIAGRLVLSESTVRVHFHHIIEKLGVTDRAGAIAWYEQSRS,-0.378
18,HMPLNAFDVAGYRLGYGGGYFDRTLAALSPRPLAVGVGFEINRLESIRPEAHDQRLDWIVTENGAFRPA,-0.944
19,HMPLNAHIVGRGKRDRRGKRGAPYSIVLELGRDENGKRIQKWYSGYPTKAAAEEDKIRMLRELQTGEYVPQ,0.153
20,HMPLPFSPVMFVGTKSGAQTDLDGNYKIETYYSSDSLKVVVLGYAPLAKKVKQGTTSVVNFELSAAS,0.104
21,HMPLPLYVQIKESLRGQIFDGTYGEHERLPSENDLMSSFGVSRITVRQALSDLEKEELIFKVPGKGAFVSR,-1.28
22,HMPLQKNRPKIKPQKVVFLFSVEWMWSPAHNRIDSYFINIKPSRYYLWNSFFDRHSFSDYWDFIGYTEN,0.22
23,HMPLSDAEKAAAIATQAKERALKLSPEMISYLLRHASRDMRTLSMLVVALDQYTLEQKRPVTLPLLRELLS,-0.0153
